{
  "source": "patent US20190328899A1",
  "about": "(HEIDELBERG PHARMA RESEARCH, published 2019)",
  "molecules": {"B1": {"name": "J22.9-ISY-D265C-30.1699 (antibody, V domains shown)", "VH": "EVQLVESGGGLVQPGGSLRLSCAASGFTFSRYWISWVRQAPGKGLVWVGEINPSSSTINYAPSLKDKFTISRDNAKNTLYLQMNSLRAEDTAVYYCASLYYDYGDAYDYWGQGTLVTVSS", "VL": "EIVMTQSPATLSVSPGERATLSCKASQSVESNVAWYQQKPGQAPRALIYSASLRFSGIPARFSGSGSGTEFTLTISSLQSEDFAVYYCQQYNNYPLTFGAGTKLELKR", "modifications": "alpha-amanitin-linker HDP 30.1699 (cathepsin B cleavable linker, maleimide) on the engineered Cys 265"}, "B2": {"name": "Thiomab antibody J22.9-ISY-D265C (antibody, human IgG1, kappa, V domains shown)", "VH": "B1 VH", "VL": "B1 VL", "notes": "Unconjugated antibody; also called thiomab J22.9-ISY-D265C"}, "B3": {"name": "amanitin-conjugate J22.9-ISY-D265C-30.2115 (antibody, V domains shown)", "VH": "B1 VH", "VL": "B1 VL", "modifications": "amatoxin-linker HDP 30.2115 (cathepsin B cleavable linker, maleimide) on the engineered Cys 265"}},
  "key": {"[1]": {"molecular_target": "B-Cell maturation antigen (BCMA) on BCMA-expressing multiple myeloma cell lines (human) (UniProt Q02223)", "test": "cell-based or functional assay"}, "[2]": {"molecular_target": "T1, B-Cell maturation antigen (BCMA) on BCMA-expressing multiple myeloma cell lines (human, UniProt Q02223 1-184)", "T1 sequence (looked up)": "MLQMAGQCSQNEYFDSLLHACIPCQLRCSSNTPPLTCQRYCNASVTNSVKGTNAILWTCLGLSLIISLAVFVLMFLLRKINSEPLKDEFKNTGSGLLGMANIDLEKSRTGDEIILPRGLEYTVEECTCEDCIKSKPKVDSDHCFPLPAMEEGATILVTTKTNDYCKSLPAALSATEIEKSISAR", "test": "cell-based or functional assay"}, "[3]": {"molecular_target": "T1, B-Cell maturation antigen (BCMA) on …", "test": "flow cytometry-binding assay on MM.1S Luc and NCI-H929 cells"}, "[4]": {"molecular_target": "T1, B-Cell maturation antigen (BCMA) on …", "test": "cell-based or functional assay", "remark": "listed apart in the source"}},
  "data": [
    {"molecule": "monomethyl auristatin F derivative J22.9-ISY-MMAF (antibody)", "values": [
      {"measurement": "cytotoxic potential EC50, KMS-11 cells, 96 h", "setting": "[1]", "result": 0.626, "unit": "nM"},
      {"measurement": "cytotoxic potential EC50, MM.1S Luc cells, 96 h", "setting": "[1]", "result": 0.481, "unit": "nM"}
    ]},
    {"molecule": "B1", "values": [
      {"measurement": "cytotoxicity EC50 [M], MM.1S Luc cells, 96 h", "setting": "[2]", "result": "6.5e-11", "unit": "M"},
      {"measurement": "cytotoxicity EC50 [M], MM.1S cells, 96 h", "setting": "[2]", "result": "1.7e-10", "unit": "M"},
      {"measurement": "cytotoxicity EC50 [M], NCI-H929 cells, 96 h", "setting": "[2]", "result": "7e-11", "unit": "M"},
      {"measurement": "cytotoxicity EC50 [M], OPM-2 cells, 96 h", "setting": "[2]", "result": "7.9e-09", "unit": "M"},
      {"measurement": "cytotoxicity EC50 [M], U266B1 cells, 96 h", "setting": "[2]", "result": "7.3e-11", "unit": "M"}
    ]},
    {"molecule": "B2", "values": [
      {"measurement": "binding result", "setting": "[3]", "result": "binds"}
    ]},
    {"molecule": "B3", "values": [
      {"measurement": "cytotoxicity EC50 [M], MM.1S Luc cells, 96 h", "setting": "[2]", "result": "2.3e-10", "unit": "M"},
      {"measurement": "cytotoxicity EC50 [M], MM.1S cells, 96 h", "setting": "[2]", "result": "2.9e-10", "unit": "M"},
      {"measurement": "cytotoxicity EC50 [M], NCI-H929 cells, 96 h", "setting": "[2]", "result": "9.7e-11", "unit": "M"},
      {"measurement": "cytotoxicity EC50 [M], OPM-2 cells, 96 h", "setting": "[2]", "result": "1.4e-07", "unit": "M"},
      {"measurement": "cytotoxicity EC50 [M], U266B1 cells, 96 h", "setting": "[2]", "result": "1.4e-10", "unit": "M"},
      {"measurement": "cytotoxic potential EC50, KMS-11 cells, 96 h", "setting": "[4]", "result": 1.72, "unit": "nM"},
      {"measurement": "cytotoxic potential EC50, MM.1S Luc cells, 96 h", "setting": "[4]", "result": 0.557, "unit": "nM"}
    ]}
  ]
}
